# Where “and” joins values, the source holds several entries; their conditions need not be identical. Equal entries are not always repeated.
# Columns and labels:
# human C1q (human) [1] = biological target: human C1q (human) (UniProt P02745); assay: MSD
# [2] = biological target: human FcγRIIIa (F158 allele) (human) (UniProt P08637); assay: MSD
# [3] = biological target: human FcγRIIIa (V158 allele) (human) (UniProt P08637); assay: MSD
# human FcγRIIIb (human) [4] = biological target: human FcγRIIIb (human) (UniProt O75015); assay: MSD
# [5] = biological target: human FcγRIIa (H131 allele) (human) (UniProt P12318); assay: MSD
# [6] = biological target: human FcγRIIa (R131 allele) (human) (UniProt P12318); assay: MSD
# human FcγRIIb (human) [7] = biological target: human FcγRIIb (human) (UniProt P31994); assay: MSD
# [8] = biological target: human FcγRIIIa (F158 allele) (human) (UniProt P08637)
# [9] = biological target: human FcγRIIIa (V158 allele) (human) (UniProt P08637)
# human FcRn (human) [10] = biological target: human FcRn (human) (UniProt P55899); assay: MSD [cont'd]
# [11] = biological target: human FcγRIIIa (F158 allele) (human) (UniProt P08637); assay: MSD [cont'd]
# [12] = biological target: human FcγRIIIa (V158 allele) (human) (UniProt P08637); assay: MSD [cont'd]
# human FcγRIIIb (human) [13] = biological target: human FcγRIIIb (human) (UniProt O75015); assay: MSD [cont'd]
# [14] = biological target: human FcγRIIa (H131 allele) (human) (UniProt P12318); assay: MSD [cont'd]
# [15] = biological target: human FcγRIIa (R131 allele) (human) (UniProt P12318); assay: MSD [cont'd]
# human FcγRIIb (human) [16] = biological target: human FcγRIIb (human) (UniProt P31994); assay: MSD [cont'd]
# [17] = biological target: human FcγRIIIa (F158 allele) (human) (UniProt P08637); remark: listed apart in the source
# [18] = biological target: human FcγRIIIa (V158 allele) (human) (UniProt P08637); remark: listed apart in the source
# [19] = biological target: human FcγRIIa (H131 allele) (human) (UniProt P12318)
# human FcγRIIb (human) [20] = biological target: human FcγRIIb (human) (UniProt P31994)
# human FcRn (human) [21] = biological target: human FcRn (human) (UniProt P55899); assay: MSD
# human C1q (human) [22] = biological target: human C1q (human) (UniProt P02745); assay: MSD [cont'd]
# human FcRn (human) [23] = biological target: human FcRn (human) (UniProt P55899); assay: MSD, pH 6 [cont'd]
# human FcγRIIIa (F158 allele) (human), sequence (P08637 17-208 limits assumed): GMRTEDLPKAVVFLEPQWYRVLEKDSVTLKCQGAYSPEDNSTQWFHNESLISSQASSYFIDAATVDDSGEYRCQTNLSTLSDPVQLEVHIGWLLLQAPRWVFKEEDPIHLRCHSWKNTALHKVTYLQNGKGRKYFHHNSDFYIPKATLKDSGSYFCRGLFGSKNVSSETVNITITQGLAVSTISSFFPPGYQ
# human C1q (human), sequence (P02745 23-245 limits assumed, chain 1 of 3): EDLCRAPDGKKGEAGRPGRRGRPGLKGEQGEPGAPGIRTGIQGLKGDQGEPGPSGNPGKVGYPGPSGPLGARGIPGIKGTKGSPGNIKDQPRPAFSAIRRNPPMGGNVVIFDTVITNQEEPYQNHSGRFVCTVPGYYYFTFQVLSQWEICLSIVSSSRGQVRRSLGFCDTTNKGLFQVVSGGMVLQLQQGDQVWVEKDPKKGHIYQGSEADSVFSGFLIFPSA
# human C1q (human), sequence (P02746 28-253 limits assumed, chain 2 of 3, further chain): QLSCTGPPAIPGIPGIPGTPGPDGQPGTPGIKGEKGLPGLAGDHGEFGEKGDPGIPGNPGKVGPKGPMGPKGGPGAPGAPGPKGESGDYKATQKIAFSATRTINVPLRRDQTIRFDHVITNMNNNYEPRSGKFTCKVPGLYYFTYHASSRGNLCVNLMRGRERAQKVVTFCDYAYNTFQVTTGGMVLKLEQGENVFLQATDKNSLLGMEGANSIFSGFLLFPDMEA
# human C1q (human), sequence (P02747 29-245 limits assumed, chain 3 of 3, further chain): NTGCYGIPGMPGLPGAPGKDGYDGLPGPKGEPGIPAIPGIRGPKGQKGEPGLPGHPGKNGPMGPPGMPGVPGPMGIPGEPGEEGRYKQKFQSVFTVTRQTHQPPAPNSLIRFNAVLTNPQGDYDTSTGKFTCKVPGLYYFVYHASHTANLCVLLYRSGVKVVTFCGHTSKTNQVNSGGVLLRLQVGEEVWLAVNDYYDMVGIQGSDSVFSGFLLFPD
# human FcγRIIa (R131 allele) (human), sequence (P12318 34-218 H167R limits assumed): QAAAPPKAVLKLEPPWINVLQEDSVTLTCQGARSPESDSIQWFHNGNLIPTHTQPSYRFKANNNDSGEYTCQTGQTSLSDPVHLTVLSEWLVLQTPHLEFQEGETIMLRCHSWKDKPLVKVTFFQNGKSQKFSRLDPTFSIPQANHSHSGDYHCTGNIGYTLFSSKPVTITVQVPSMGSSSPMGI
# human FcγRIIb (human), sequence (P31994 43-217 limits assumed): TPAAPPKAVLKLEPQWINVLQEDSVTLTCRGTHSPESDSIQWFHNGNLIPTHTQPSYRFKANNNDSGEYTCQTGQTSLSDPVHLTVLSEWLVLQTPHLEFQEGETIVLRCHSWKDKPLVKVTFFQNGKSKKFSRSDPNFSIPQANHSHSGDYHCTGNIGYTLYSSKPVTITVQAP
# human FcRn (human), sequence (P55899 24-297 limits assumed, chain 1 of 2): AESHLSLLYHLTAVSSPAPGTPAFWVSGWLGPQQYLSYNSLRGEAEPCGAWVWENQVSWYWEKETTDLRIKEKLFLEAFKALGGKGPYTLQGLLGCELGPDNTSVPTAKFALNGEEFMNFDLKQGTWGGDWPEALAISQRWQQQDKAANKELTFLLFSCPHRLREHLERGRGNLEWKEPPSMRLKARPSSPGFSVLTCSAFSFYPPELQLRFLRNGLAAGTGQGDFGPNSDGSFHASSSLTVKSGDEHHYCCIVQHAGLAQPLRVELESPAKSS
# human FcRn (human), sequence (chain, as listed by the source limits assumed, chain 2 of 2): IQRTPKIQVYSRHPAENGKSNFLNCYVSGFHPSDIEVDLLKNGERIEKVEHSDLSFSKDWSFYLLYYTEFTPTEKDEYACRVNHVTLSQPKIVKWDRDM
# human FcγRIIIa (V158 allele) (human), sequence (P08637 17-208 F176V limits assumed): as the sequence (P08637 17-208 limits assumed) above, with F160V counted along it
# human FcγRIIa (H131 allele) (human), sequence (P12318 34-218 limits assumed): as the sequence (P12318 34-218 H167R limits assumed) above, with R134H counted along it
# human FcγRIIIb (human), sequence (O75015 17-200 limits assumed): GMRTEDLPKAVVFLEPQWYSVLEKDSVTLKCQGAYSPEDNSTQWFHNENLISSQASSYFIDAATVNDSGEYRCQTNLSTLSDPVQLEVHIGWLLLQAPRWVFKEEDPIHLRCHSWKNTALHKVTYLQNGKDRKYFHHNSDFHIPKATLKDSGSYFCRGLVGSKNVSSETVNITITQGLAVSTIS
substance,measurement,setting,value
G236A (antibody),fold-change vs FY1 rIgG1m3,human C1q (human) [1],0.59 fold and 0.36 fold
same,fold-change vs FY1 rIgG1m3,[2],0.6 fold and 0.8 fold
same,fold-change vs FY1 rIgG1m3,[3],0.4 fold and 0.6 fold
same,fold-change vs FY1 rIgG1m3,human FcγRIIIb (human) [4],0.82 fold
same,fold-change vs FY1 rIgG1m3,[5],5.9 fold and 12.1 fold
same,fold-change vs FY1 rIgG1m3,[6],4.8 fold and 6.3 fold
same,fold-change vs FY1 rIgG1m3,human FcγRIIb (human) [7],0.6 fold and 1.1 fold
G236A_A330L_I332E-afuc (antibody),"FcγR reporter signaling, fold to wt-fucose [cont'd]",[8],14.8 fold
same,"FcγR reporter signaling, fold to wt-fucose [cont'd]",[9],5.27 fold
same,fold-change (reference not given),[2],242 fold
same,fold-change (reference not given),[3],28 fold
same,fold-change (reference not given),human FcγRIIIb (human) [4],14.8 fold
same,fold-change (reference not given),[5],3.1 fold
same,fold-change (reference not given),[6],1.6 fold
same,fold-change (reference not given),human FcγRIIb (human) [7],0.6 fold
same,fold to wt-fucose,human FcRn (human) [10],1.09 fold
same,fold to wt-fucose,[11],259 fold
same,fold to wt-fucose,[12],32 fold
same,fold to wt-fucose,human FcγRIIIb (human) [13],14.1 fold
same,fold to wt-fucose,[14],3.45 fold
same,fold to wt-fucose,[15],1.65 fold
same,fold to wt-fucose,human FcγRIIb (human) [16],0.67 fold
G236A_A330L_I332E_M428L_N434S (antibody),"FcγR reporter signaling, fold-change vs wt [cont'd]",[17],13.5 fold
same,"FcγR reporter signaling, fold-change vs wt [cont'd]",[18],3.92 fold
same,"FcγR reporter signaling, fold-change vs wt [cont'd]",[19],2.32 fold
same,"FcγR reporter signaling, fold-change vs wt [cont'd]",human FcγRIIb (human) [20],0.35 fold
same,fold-change vs FY1 rIgG1m3,human FcRn (human) [21],12.3 fold
same,fold-change vs FY1 rIgG1m3-MLNS,human FcRn (human) [21],0.68 fold
same,fold-change vs FY1 rIgG1m3,[2],9.4 fold
same,fold-change vs FY1 rIgG1m3-MLNS,[2],14.4 fold
same,fold-change vs wt,[2],9.41 fold
same,fold-change to WT Fc,[3],1.56 fold
same,fold-change vs FY1 rIgG1m3,[3],1.6 fold
same,fold-change vs FY1 rIgG1m3-MLNS,[3],2.1 fold
same,fold-change vs wt,[3],1.56 fold
same,fold-change vs FY1 rIgG1m3,human FcγRIIIb (human) [4],1.4 fold
same,fold-change vs FY1 rIgG1m3-MLNS,human FcγRIIIb (human) [4],1.9 fold
same,fold-change vs wt,human FcγRIIIb (human) [4],1.4 fold
same,fold-change to WT Fc,[5],2.89 fold
same,fold-change vs FY1 rIgG1m3,[5],2.9 fold
same,fold-change vs FY1 rIgG1m3-MLNS,[5],3.8 fold
same,fold-change vs wt,[5],2.89 fold
same,fold-change vs FY1 rIgG1m3,[6],1.3 fold
same,fold-change vs FY1 rIgG1m3-MLNS,[6],2.5 fold
same,fold-change vs wt,[6],1.27 fold
same,fold-change to WT Fc,human FcγRIIb (human) [7],0.422 fold
same,fold-change vs FY1 rIgG1m3,human FcγRIIb (human) [7],0.4 fold
same,fold-change vs FY1 rIgG1m3-MLNS,human FcγRIIb (human) [7],0.8 fold
same,fold-change vs wt,human FcγRIIb (human) [7],0.42 fold
same,fold-change vs wt,human C1q (human) [22],0 fold
same,fold-change vs wt,human FcRn (human) [10],12.3 fold
same,fold-change to WT Fc,human FcRn (human) [23],12.3 fold
G236A_A330L_I332E_M428L_N434S-afuc (antibody),"FcγR reporter signaling, fold to wt-fucose [cont'd]",[8],16.4 fold
same,"FcγR reporter signaling, fold to wt-fucose [cont'd]",[9],6.2 fold
same,fold-change (reference not given),[2],256 fold
same,fold-change (reference not given),[3],30.2 fold
same,fold-change (reference not given),human FcγRIIIb (human) [4],12.3 fold
same,fold-change (reference not given),[5],2.3 fold
same,fold-change (reference not given),[6],1.1 fold
same,fold-change (reference not given),human FcγRIIb (human) [7],0.4 fold
same,fold to wt-fucose,human FcRn (human) [10],7.37 fold
same,fold to wt-fucose,[11],275 fold
same,fold to wt-fucose,[12],34.5 fold
same,fold to wt-fucose,human FcγRIIIb (human) [13],11.8 fold
same,fold to wt-fucose,[14],2.56 fold
same,fold to wt-fucose,[15],1.2 fold
same,fold to wt-fucose,human FcγRIIb (human) [16],0.41 fold
G236A_R292P_I377N-afuc (antibody),"FcγR reporter signaling, fold to wt-fucose [cont'd]",[8],9.68 fold
same,"FcγR reporter signaling, fold to wt-fucose [cont'd]",[9],3.94 fold
same,fold-change (reference not given),[2],14.8 fold
same,fold-change (reference not given),[3],7.1 fold
same,fold-change (reference not given),human FcγRIIIb (human) [4],1.2 fold
same,fold-change (reference not given),[5],5.5 fold
same,fold-change (reference not given),[6],1.4 fold
same,fold-change (reference not given),human FcγRIIb (human) [7],0.6 fold
same,fold to wt-fucose,human FcRn (human) [10],0.8 fold
same,fold to wt-fucose,[11],14.8 fold
same,fold to wt-fucose,[12],7.14 fold
same,fold to wt-fucose,human FcγRIIIb (human) [13],1.2 fold
same,fold to wt-fucose,[14],5.54 fold
same,fold to wt-fucose,[15],1.35 fold
same,fold to wt-fucose,human FcγRIIb (human) [16],0.6 fold
GA (Fc-LS) (antibody),fold-change vs FY1 rIgG1m3-MLNS,human C1q (human) [1],0.35 fold
same,fold-change vs FY1 rIgG1m3-MLNS,human FcRn (human) [21],0.95 fold
same,fold-change vs FY1 rIgG1m3-MLNS,[2],0.93 fold
same,fold-change vs FY1 rIgG1m3-MLNS,[3],0.52 fold
same,fold-change vs FY1 rIgG1m3-MLNS,human FcγRIIIb (human) [4],0.84 fold
same,fold-change vs FY1 rIgG1m3-MLNS,[5],10 fold
same,fold-change vs FY1 rIgG1m3-MLNS,[6],6.9 fold
same,fold-change vs FY1 rIgG1m3-MLNS,human FcγRIIb (human) [7],1.1 fold

# From patent US20260184814A1, “BROADLY NE[…] INFLUENZA NEURAMINIDASE” (priority 2022, published 2026)
